Experimental data: patent US20240141007A1 (XILIO DEVELOPMENT, published 2024)

The binders below were run against T1, human FcRn (human, UniProt P55899 24-297; P61769 21-119) (assay: SPR, hFcRn as ligand).
T1 construct: also called hFcRn
T1 sequence (P55899 24-297 limits assumed, chain 1 of 2): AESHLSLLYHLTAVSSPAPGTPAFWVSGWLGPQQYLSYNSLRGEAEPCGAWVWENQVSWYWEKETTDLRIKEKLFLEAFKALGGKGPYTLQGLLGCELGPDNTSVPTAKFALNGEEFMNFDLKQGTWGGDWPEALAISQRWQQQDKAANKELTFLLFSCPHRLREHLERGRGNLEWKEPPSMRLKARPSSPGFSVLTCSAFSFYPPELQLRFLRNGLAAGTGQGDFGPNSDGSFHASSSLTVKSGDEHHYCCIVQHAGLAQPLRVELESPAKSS
T1 sequence (P61769 21-119 limits assumed, chain 2 of 2): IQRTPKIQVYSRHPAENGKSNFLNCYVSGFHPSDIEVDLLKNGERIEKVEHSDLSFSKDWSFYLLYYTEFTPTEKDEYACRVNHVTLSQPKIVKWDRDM
Source text: Surface Plasmon Resonance (SPR) protein binding assay was used to measure FcRn binding.

Binder | Kd [nM]
UCM75 (Fc fusion) chain 1: DKTHTCPPCPAPELLGGPSVFLFPPKPKDTLMISRTPEVTCVVVDVSHEDPEVKFNWYVDGVEVHNAKTKPREEQYASTYRVVSVLTVLHQDWLNGKEYKCKVSNKALPAPIEKTISKAKGQPREPQVYTLPPCRDELTKNQVSLWCLVKGFYPSDIAVEWESNGQPENNYKTTPPVLDSDGSFFLYSKLTVDKSRWQQGNVFSCSVMHEALHNRFTQKSLSLSPGGSPG chain 2: DKTHTCPPCPAPELLGGPSVFLFPPKPKDTLMISRTPEVTCVVVDVSHEDPEVKFNWYVDGVEVHNAKTKPREEQYASTYRVVSVLTVLHQDWLNGKEYKCKVSNKALPAPIEKTISKAKGQPREPQVCTLPPSRDELTKNQVSLSCAVKGFYPSDIAVEWESNGQPENNYKTTPPVLDSDGSFFLVSKLTVDKSRWQQGNVFSCSVMHEALHNHYTVPLSLYSGG | 1490
UCM78 (Fc fusion) chain 1: DKTHTCPPCPAPELLGGPSVFLFPPKPKDTLMISRTPEVTCVVVDVSHEDPEVKFNWYVDGVEVHNAKTKPREEQYASTYRVVSVLTVLHQDWLNGKEYKCKVSNKALPAPIEKTISKAKGQPREPQVYTLPPCRDELTKNQVSLWCLVKGFYPSDIAVEWESNGQPENNYKTTPPVLDSDGSFFLYSKLTVDKSRWQQGNVFSCSVMHEALHNRFTQKSLSLSPGGSPG chain 2: DKTHTCPPCPAPELLGGPSVFLFPPKPKDTLMISRTPEVTCVVVDVSHEDPEVKFNWYVDGVEVHNAKTKPREEQYASTYRVVSVLTVLHQDWLNGKEYKCKVSNKALPAPIEKTISKAKGQPREPQVCTLPPSRDELTKNQVSLSCAVKGFYPSDIAVEWESNGQPENNYKTTPPVLDSDGSFFLVSKLTVDKSRWQQGNVFSCSVMHEALHNHYTQRPLALWRS | 181
UCM81 (Fc fusion) chain 1: DKTHTCPPCPAPELLGGPSVFLFPPKPKDTLMISRTPEVTCVVVDVSHEDPEVKFNWYVDGVEVHNAKTKPREEQYASTYRVVSVLTVLHQDWLNGKEYKCKVSNKALPAPIEKTISKAKGQPREPQVYTLPPCRDELTKNQVSLWCLVKGFYPSDIAVEWESNGQPENNYKTTPPVLDSDGSFFLYSKLTVDKSRWQQGNVFSCSVMHEALHNRFTQKSLSLSPGGSPG chain 2: DKTHTCPPCPAPELLGGPSVFLFPPKPKDTLMISRTPEVTCVVVDVSHEDPEVKFNWYVDGVEVHNAKTKPREEQYASTYRVVSVLTVLHQDWLNGKEYKCKVSNKALPAPIEKTISKAKGQPREPQVCTLPPSRDELTKNQVSLSCAVKGFYPSDIAVEWESNGQPENNYKTTPPVLDSDGSFFLVSKLTVDKSRWQQGNVFSCSVMHEALHNHYTPANLVAPDP | 1100
UCM77 (Fc fusion) chain 1: DKTHTCPPCPAPELLGGPSVFLFPPKPKDTLMISRTPEVTCVVVDVSHEDPEVKFNWYVDGVEVHNAKTKPREEQYASTYRVVSVLTVLHQDWLNGKEYKCKVSNKALPAPIEKTISKAKGQPREPQVYTLPPCRDELTKNQVSLWCLVKGFYPSDIAVEWESNGQPENNYKTTPPVLDSDGSFFLYSKLTVDKSRWQQGNVFSCSVMHEALHNRFTQKSLSLSPGGSPGAPTSSSTKKTQLQLEHLLLDLQMILNGINNYKNPKLTAMLTAKFAMPKKATELKHLQCLEEALKPLEEVLNLAQSKNFHLRPRDLISNINVIVLELKGSETTFMCEYADETATIVEFLNRWITFAQSIISTLT chain 2: DKTHTCPPCPAPELLGGPSVFLFPPKPKDTLMISRTPEVTCVVVDVSHEDPEVKFNWYVDGVEVHNAKTKPREEQYASTYRVVSVLTVLHQDWLNGKEYKCKVSNKALPAPIEKTISKAKGQPREPQVCTLPPSRDELTKNQVSLSCAVKGFYPSDIAVEWESNGQPENNYKTTPPVLDSDGSFFLVSKLTVDKSRWQQGNVFSCSVMHEALHNHYTRAAAVKSPG | 312
UCM80 (Fc fusion) chain 1: DKTHTCPPCPAPELLGGPSVFLFPPKPKDTLMISRTPEVTCVVVDVSHEDPEVKFNWYVDGVEVHNAKTKPREEQYASTYRVVSVLTVLHQDWLNGKEYKCKVSNKALPAPIEKTISKAKGQPREPQVYTLPPCRDELTKNQVSLWCLVKGFYPSDIAVEWESNGQPENNYKTTPPVLDSDGSFFLYSKLTVDKSRWQQGNVFSCSVMHEALHNRFTQKSLSLSPGGSPG chain 2: DKTHTCPPCPAPELLGGPSVFLFPPKPKDTLMISRTPEVTCVVVDVSHEDPEVKFNWYVDGVEVHNAKTKPREEQYASTYRVVSVLTVLHQDWLNGKEYKCKVSNKALPAPIEKTISKAKGQPREPQVCTLPPSRDELTKNQVSLSCAVKGFYPSDIAVEWESNGQPENNYKTTPPVLDSDGSFFLVSKLTVDKSRWQQGNVFSCSVMHEALHNHYTQPVSLRSGS | 565
UCM79 (Fc fusion) chain 1: DKTHTCPPCPAPELLGGPSVFLFPPKPKDTLMISRTPEVTCVVVDVSHEDPEVKFNWYVDGVEVHNAKTKPREEQYASTYRVVSVLTVLHQDWLNGKEYKCKVSNKALPAPIEKTISKAKGQPREPQVYTLPPCRDELTKNQVSLWCLVKGFYPSDIAVEWESNGQPENNYKTTPPVLDSDGSFFLYSKLTVDKSRWQQGNVFSCSVMHEALHNRFTQKSLSLSPGGSPG chain 2: DKTHTCPPCPAPELLGGPSVFLFPPKPKDTLMISRTPEVTCVVVDVSHEDPEVKFNWYVDGVEVHNAKTKPREEQYASTYRVVSVLTVLHQDWLNGKEYKCKVSNKALPAPIEKTISKAKGQPREPQVCTLPPSRDELTKNQVSLSCAVKGFYPSDIAVEWESNGQPENNYKTTPPVLDSDGSFFLVSKLTVDKSRWQQGNVFSCSVMHEALHNHYTAPAGLIVPYN | 1310
UCM76 (Fc fusion) chain 1: DKTHTCPPCPAPELLGGPSVFLFPPKPKDTLMISRTPEVTCVVVDVSHEDPEVKFNWYVDGVEVHNAKTKPREEQYASTYRVVSVLTVLHQDWLNGKEYKCKVSNKALPAPIEKTISKAKGQPREPQVYTLPPCRDELTKNQVSLWCLVKGFYPSDIAVEWESNGQPENNYKTTPPVLDSDGSFFLYSKLTVDKSRWQQGNVFSCSVMHEALHNRFTQKSLSLSPGGSPGAPTSSSTKKTQLQLEHLLLDLQMILNGINNYKNPKLTAMLTAKFAMPKKATELKHLQCLEEALKPLEEVLNLAQSKNFHLRPRDLISNINVIVLELKGSETTFMCEYADETATIVEFLNRWITFAQSIISTLT chain 2: DKTHTCPPCPAPELLGGPSVFLFPPKPKDTLMISRTPEVTCVVVDVSHEDPEVKFNWYVDGVEVHNAKTKPREEQYASTYRVVSVLTVLHQDWLNGKEYKCKVSNKALPAPIEKTISKAKGQPREPQVCTLPPSRDELTKNQVSLSCAVKGFYPSDIAVEWESNGQPENNYKTTPPVLDSDGSFFLVSKLTVDKSRWQQGNVFSCSVMHEALHNHYTQMPYDLYHPNFMLTQPHSVSESPGKTVTISCTRSSGSIASNYVQWYQQRPGSSPTTVIYEDNQRPSGVPDRFSGSIDSSSNSASLTISGLKTEDEADYYCQTYDSIDVYFGGGTKLTVLGGGGGSGGGGSGGGGSGGGGSQLQLQESGPGLVKPSQTLSLTCTVSGGSISSGGYYWSWIRQHPGKGLEWIGYIYKSGSAYYSPSLKSRVTISVDTSKNQFSLKLSSVTAADTAVYYCARTPTVTGDWFDPWGRGTLVTVSS | 551
